Among the data in publication PMC2925294 are stoichiometry N values, retold here.

Holding throughout (experiment): cryo-EM structure
Assay [1] addresses epsilon15 bacteriophage tail-spike (gp20) (epsilon15 bacteriophage).
The target of assay [2] is epsilon15 bacteriophage tail hub (epsilon15 bacteriophage).
Assay [3] has as its target epsilon15 bacteriophage capsid stapling protein gp10 (epsilon15 bacteriophage).
Assay [4] has the same target. The source holds these as a separate data set.

Like-named read-outs stand apart in the source and are kept apart here.

As for “epsilon15 bacteriophage tail-spike (gp20) (natural protein)”, in assay [1], the stoichiometry N was 3.

In assay [2], “epsilon15 bacteriophage tail hub (natural protein)” returned a stoichiometry N of 6.

On to “epsilon15 bacteriophage capsid stapling protein gp10 (natural protein)”, for which the stoichiometry N in assay [3] and in assay [4] was 2 throughout.
